Data published in US9138474B2, “Composition comprising expression or activity inhibitors of Ninjurin1 for the prevention and treatment of inflammatory disease” (SNU R&DB FOUNDATION, priority 2008, dated 2015).

Assays:
Wnt7b expression = Wnt7b expression (RT-PCR) in BV2 cells expressing Myc-Ninjurin1 treated with p38 inhibitor; assay type: cell-based, rodent; settings: 0, 10, 30 uM, 24 hours
Protocol: Primary cultured human microvascular pericytes (Applied Cell Biology Research Institute) were cultured in Dulbecco's modified Eagle's medium (DMEM); Raw 264.7 cells (TIB-71™) and BV2 cells were cultured in DMEM; and HUVEC cells were cultured in M199 supplemented with 20% FBS (Invitrogen, Grand Island, N.Y.). Those cells were cultured at 37° C. in humid air composed of […] and 5% CO2. Raw cells and BV2 cells were transformed by using Lipofectamine Plus Reagent (Invitrogen). Cell lysate was prepared by using lysis buffer (40 mM Tris-Cl pH 8.4, 10 mM EDTA, 120 mM NaCl, 0.1% NP-40). To prepare culture solution to treat human microvascular pericytes, transformed macrophages were cultured in serum (FBS)-free DMEM for 24 hours, which were then filtered with 0.22 […] filter paper (Millipore), followed by 10 fold concentration using centrifugation filtering tube (Millipore). For the chemical treatment, cells were cultured at the density of 60-70% and then treated with Ang1 and Ang2 (500-1000 ng/ml) independently or together in serum free condition for 14-16 hours. To understand signal transduction pathway, cells were transformed with Mock or Ninjurin1 cDNA. Serum was depleted for 14-16 hours and then the cells were treated with SB203580 (Sigma), the p38 inhibitor, for 24 hours. […]

[1] = test system: rodent originated macrophages (Raw264.7, BV2); experiment: Wnt7b and Ninjurin1 quantified by RT-PCR in macrophages in the presence of rh-Ang1 or rh-Ang2; assay type: cell-based; settings: 0, 1 and 2.5 ug/ml
Protocol: Primary cultured human microvascular pericytes (Applied Cell Biology Research Institute) were cultured in Dulbecco's modified Eagle's medium (DMEM); Raw 264.7 cells (TIB-71™) and BV2 cells were cultured in DMEM; and HUVEC cells were cultured in M199 supplemented with 20% FBS (Invitrogen, Grand Island, N.Y.). Those cells were cultured at 37° C. in humid air composed of […] and 5% CO2. Raw cells and BV2 cells were transformed by using Lipofectamine Plus Reagent (Invitrogen). Cell lysate was prepared by using lysis buffer (40 mM Tris-Cl pH 8.4, 10 mM EDTA, 120 mM NaCl, 0.1% NP-40). To prepare culture solution to treat human microvascular pericytes, transformed macrophages were cultured in serum (FBS)-free DMEM for 24 hours, which were then filtered with 0.22 […] filter paper (Millipore), followed by 10 fold concentration using centrifugation filtering tube (Millipore). For the chemical treatment, cells were cultured at the density of 60-70% and then treated with Ang1 and Ang2 (500-1000 ng/ml) independently or together in serum free condition for 14-16 hours. To understand signal transduction pathway, cells were transformed with Mock or Ninjurin1 cDNA. Serum was depleted for 14-16 hours and then the cells were treated with SB203580 (Sigma), the p38 inhibitor, for 24 hours.
Particularly, RT-PCR and real time PCR were performed as follows: Transformed BV2 cells were cultured in DMEM supplemented with 1% serum for 2 days, and then RNA was extracted by using Trizol reagent (Invitrogen). Following primers were used for RT-PCR: Gapdh: forward primer 5′-[…]-3′ (SEQ. ID. NO: 4), reverse primer 5′-[…]-3′ (SEQ. ID. NO: 5); Ninjurin1: forward primer 5′-GAGTCGGGCACTGAGGA-3′ (SEQ. ID. NO: 6), reverse primer: 5′-GTTGCAGGGGTCTGGTCA-3′ (SEQ. ID. NO: 7); Ang1: forward primer 5′-[…]-3′ (SEQ. ID. NO: 8), reverse primer: 5′-[…]-3′ (SEQ. ID. NO: 9); Ang2: forward primer 5′-[…]-3′ (SEQ. ID. NO: 10), reverse primer: 5′-[…]-3′ (SEQ. ID. NO: 11); Wnt7b: forward primer 5′-[…]-3′ (SEQ. ID. NO: 12), reverse primer: 5′-[…]-3′ (SEQ. ID. NO: 13); Wnt7b: 2nd round forward primer 5′-[…]-3′ (SEQ. ID. NO: 14), reverse primer: 5′-[…]-3′ (SEQ. ID. NO: 15). The PCR products were separated on 1.2% agarose gel containing EtBr (ethidium bromide), followed by analysis by digital imaging. Primers used for real-time PCR were as follows: Ang2: forward primer 5′-[…]-3′ (SEQ. ID. NO: 16), reverse primer: 5′-[…]-3′ (SEQ. ID. NO: 17); Gapdh, Ang1 and Wnt7: same primers as used for RT-PCR were used. […]
To investigate interaction among Wnt7b, Ninjurin1, Ang1 and Ang2, Wnt7b and Ninjurin1 were quantified by RT-PCR in the presence of recombinant human Ang1 (rh-Ang1) and rh-Ang2 at different concentrations (0, 1 and 2.5 ug/ml) in rodent originated macrophages (Raw264.7, BV2).

Molecule: C[S+]([O-])c1ccc(-c2nc(-c3ccncc3)c(-c3ccc(F)cc3)[nH]2)cc1 (centres unmarked) [p38 inhibitor, SB203580]
- Wnt7b expression stimulated by Ninjurin1 (Wnt7b expression): reduced

B1: rh-Ang1: recombinant human Ang1 (angiopoietin-1), R&D Systems (protein, UniProt Q15389 16-498, looked up)
Angiopoietin-1: HIGCSNQRRSPENSGRRYNRIQHGQCAYTFILPEHDGNCRESTTDQYNTNALQRDAPHVEPDFSSQKLQHLEHVMENYTQWLQKLENYIVENMKSEMAQIQQNAVQNHTATMLEIGTSLLSQTAEQTRKLTDVETQVLNQTSRLEIQLLENSLSTYKLEKQLLQQTNEILKIHEKNSLLEHKILEMEGKHKEELDTLKEEKENLQGLVTRQTYIIQELEKQLNRATTNNSVLQKQQLELMDTVHNLVNLCTKEGVLLKGGKREEEKPFRDCADVYQAGFNKSGIYTIYINNMPEPKKVFCNMDVNGGGWTVIQHREDGSLDFQRGWKEYKMGFGNPSGEYWLGNEFIFAITSQRQYMLRIELMDWEGNRAYSQYDRFHIGNEKQNYRLYLKGHTGTAGKQSSLILHGADFSTKDADNDNCMCKCALMLTGGWWFDACGPSNLNGMFYTAGQNHGKLNGIKWHYFKGPSYSLRSTTMMIRPLDF
- Ninjurin1 expression [1]: reduced
- Wnt7b expression [1]: reduced

B2: rh-Ang2: recombinant human Ang2 (angiopoietin-2), R&D Systems (protein, UniProt O15123 19-496, looked up)
Angiopoietin-2: YNNFRKSMDSIGKKQYQVQHGSCSYTFLLPEMDNCRSSSSPYVSNAVQRDAPLEYDDSVQRLQVLENIMENNTQWLMKLENYIQDNMKKEMVEIQQNAVQNQTAVMIEIGTNLLNQTAEQTRKLTDVEAQVLNQTTRLELQLLEHSLSTNKLEKQILDQTSEINKLQDKNSFLEKKVLAMEDKHIIQLQSIKEEKDQLQVLVSKQNSIIEELEKKIVTATVNNSVLQKQQHDLMETVNNLLTMMSTSNSAKDPTVAKEEQISFRDCAEVFKSGHTTNGIYTLTFPNSTEEIKAYCDMEAGGGGWTIIQRREDGSVDFQRTWKEYKVGFGNPSGEYWLGNEFVSQLTNQQRYVLKIHLKDWEGNEAYSLYEHFYLSSEELNYRIHLKGLTGTAGKISSISQPGNDFSTKDGDNDKCICKCSQMLTGGWWFDACGPSNLNGMYYPQRQNTNKFNGIKWYYWKGSGYSLKATTMMIRPADF
- Ninjurin1 expression [1]: increased
- Wnt7b expression [1]: increased
